Patent publication US20230322879A1

Target: CC-chemokine receptor type 7 (CCR7) (UniProt P32248)
Test: cell-based or functional assay

Sequence of UniProt P32248 (P32248 25-378 limits assumed): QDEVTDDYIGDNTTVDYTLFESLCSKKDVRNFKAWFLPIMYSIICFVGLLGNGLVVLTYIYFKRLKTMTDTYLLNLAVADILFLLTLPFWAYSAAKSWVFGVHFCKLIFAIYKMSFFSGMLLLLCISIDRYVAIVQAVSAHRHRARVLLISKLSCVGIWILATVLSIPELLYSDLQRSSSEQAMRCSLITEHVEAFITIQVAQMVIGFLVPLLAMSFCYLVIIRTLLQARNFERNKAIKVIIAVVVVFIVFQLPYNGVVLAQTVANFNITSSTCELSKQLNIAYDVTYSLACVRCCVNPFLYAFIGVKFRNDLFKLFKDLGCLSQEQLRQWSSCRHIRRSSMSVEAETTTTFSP

Cells in the well of absorbent material (chemotaxis of PBMCs, agarose assay): 170 cells
Chemotaxis percentage (PBMCs, agarose assay): 90%
Chemotaxis rate (PBMCs, agarose assay): 153 cells
cancer cell migration after 72 hours, wound healing assay: 90%
Substance: commercial CCL21 antigen (from UniProt O00585 24-134) (ligand)
survival of MCF7 cancer cells, MTT assay, 7.5 µg/ml: 33%
